Tested on: MS2 coat protein
Assay: apparent KD of MS2 coat protein; designed switch direction (-1 OFF switch, 1 ON switch): -1; higher = weaker reporter binding
Method in brief: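 The reported apparent KD is a per-design median over clusters, from curve fits of normalised cluster fluorescence. Protein titrations used SNAP-549-labelled MS2 coat protein, doubled from 0.7 or 1.5 nM to 3 µM, in Tris-HCl pH 7.5 buffer with KCl, MgCl2, BSA, DTT, tRNA and Tween-20, with no input, 200 uM small-molecule ligand, or an oligonucleotide input. The RNA switches were transcribed on Illumina chips by stalled E. coli RNA polymerase.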

[1] = input ligand: microRNA oligo, concentration not stated
[2] = Eterna round: R95, input ligand: microRNA oligo, concentration not stated
[3] = Eterna round: R95, input ligand: FMN 200 uM
[4] = Eterna round: R95, input ligand: none

Sequence	apparent KD of MS2 coat protein (input ligand: FMN 200 uM) [µM]	apparent KD of MS2 coat protein [1] [µM]	apparent KD of MS2 coat protein (input ligand: none) [µM]	apparent KD of MS2 coat protein [2] [µM]	apparent KD of MS2 coat protein [3] [µM]	apparent KD of MS2 coat protein [4] [µM]
AUAAUUAGUUCAGGAUAUCAGCACGUGUAGUGCUGAGAAGGGAACAUGAGGAUCACCCAUGUGAUCAAUAUUAUAAUUUUAAUU [ENG1/12-B3] (Eterna round: R96, puzzle: Exclusion NG 1)	0.42	0.925	1.19	–	–	–
AUACACUAAGUGAGGAUAUCGAUUUCUUUAAGGAUCGAGAAGGCACAUGAGGAUCACCCAUGUUUGACGUGAAU [JR_BMOE4_Sub096] (puzzle: Brourd's mod of Exclusion 4)	–	–	–	0.0303	–	–
AUACACUGAGGAUAUACAUGAGGAUCACCCAUGUGGAAAGCCUCUGGCGGAACUUCGUGUAGAAGGCAGCCACG [Esatdi] (puzzle: Exclusion 3)	–	–	–	0.0139	0.018	0.0134
AUACCACGAGGAUAUCGUCUAUAAUACAUGAGGAUCACCCAUGUUAUAUCUGUAAUGUUUCGAGAAGGCGUGUUUU [JR_E5_Sub083] (puzzle: Exclusion 5)	–	–	–	0.0166	–	–
AUAGAGUCAGGAUAUACAAGAUGAAAGAUAGAUAGAAGAAAGUAGAAGGGACAUGAGGAUCACCCAUGUAAGAA [JR_Exclu4_Sub051] (puzzle: Exclusion 4)	–	–	–	0.0317	0.0349	0.0362
AUAGAUCGUUAGGAUAUCCAGAUGACCCUCGUUGGAGAAGGAACGACAUGAGGAUCACCCAUGUUAUAGUACUU [Eternabot (L2) Solution 66] (Eterna round: R97, puzzle: Exclusion 6)	0.0169	–	0.0185	–	–	–
AUAGGAGGAGGAUAUGAAACCGAUAACAUGAGGAUCACCCAUGUCGAAAGAACUUUCCGGUCAGAAGGCCUGAUGU [Eternabot (L2) Solution 60] (Eterna round: R97, puzzle: Exclusion 5)	0.0163	–	0.0251	–	–	–
AUAGGCUUUUAUAUCCUUAACAUGAGGAUCACCCAUGUUCGUCUUAUGAUGGUCUGAUCCCUGAGGAUCGGACCGUU [JL-sv1-2.05 Brourd Mod] (puzzle: Sensor v3, turn-off variant 1)	–	–	–	0.134	0.0323	0.0354
AUAGUAUUGCAAGGAUAUCGAUUUAGUUUGUUUCGAGAAGGUGCUUUAGUUUAUACCUCUUGUUUACAUGAGGAUCACCCAUGU [JR_ExcNG1_Sub049] (Eterna round: R96, puzzle: Exclusion NG 1)	0.0185	0.0192	0.0275	–	–	–
AUAGUGUUAGGAUAUGCUUAUGCUGGGUAGUCCAGUAUGGAGUAGAAGGGACAUGAGGAUCACCCAUGUGCUCA [EX4 #40] (Eterna round: R97, puzzle: Exclusion 4)	0.0186	–	0.0205	–	–	–
AUAUAGAUGGUCAGGAUAUGCUAGUGGUAACAGUAGCAGAAGGGACAUGAGGAUCACCCAUGUAGAUCCUGCUC [Brourd's EX4 #13] (Eterna round: R97, puzzle: Brourd's mod of Exclusion 4)	0.0335	–	0.0211	–	–	–
AUAUAUAGUGUGAGGAUAUGCUGGUCCUUGGAUCAGCAGAAGGCACAUGAGGAUCACCCAUGUAGUUUAUUUUU [Mat - Exclusion 4 - JL Mod - D5] (puzzle: Brourd's mod of Exclusion 4)	–	–	–	0.0262	–	–
AUAUAUAUAGGAUAUACAUGAGGAUCACCCAUGUAAAGUAGCUUGCGUACAGGCAGAUGUAGAAGGAUAUAUAU [Mod of JL 15 - Jieux - Exclusion 3] (Eterna round: R97, puzzle: Exclusion 3)	0.0292	–	0.0331	–	–	–
AUAUCCAGAGGAUAUCCGCACGGACACAUGAGGAUCACCCAUGUUUUCAUGAACGUUGCCGGAGAAGGCUGAGGAA [Eternabot (Original) Solution 10] (Eterna round: R97, puzzle: Exclusion 5)	0.0797	–	0.0697	–	–	–
AUAUGUAACUAGGAUAUCAGCAUACUUCAAUGUUGAGAAGGAGUUACAUGAGGAUCACCCAUGUAUCCAACAUG [Exclusion 6 - 3] (Eterna round: R96, puzzle: Exclusion 6)	0.0733	0.0567	0.0671	–	–	–
AUAUGUAACUAGGAUAUCAGCAUACUUCAAUGUUGAGAAGGAGUUACAUGAGGAUCACCCAUGUAUCCAACAUG [Exclusion 6 - 3] (puzzle: Exclusion 6)	–	–	–	0.0441	–	–

Sequence	apparent KD of MS2 coat protein (input ligand: FMN 200 uM) [µM]	apparent KD of MS2 coat protein [1] [µM]	apparent KD of MS2 coat protein (input ligand: none) [µM]	apparent KD of MS2 coat protein [2] [µM]	apparent KD of MS2 coat protein [3] [µM]	apparent KD of MS2 coat protein [4] [µM]
AUAUUGUGAGGAUAUGAACUUAGUAUCGAAAGAUUCUAAGUUCAGAAGGCACAUGAGGAUCACCCAUGUUUCUC [Long static hairpin v20] (Eterna round: R97, puzzle: Exclusion 4)	0.808	–	0.0819	–	–	–
AUAUUUAAGCUUUUGUGAAACAUGAGGAUCACCCAUGUCCUCAUACCUGGACAUUUAAGUCUAGGAGCUCGUCUUAU [Last end dangle 1] (Eterna round: R97, puzzle: Sensor, turn-off variant 1)	0.518	–	0.558	–	–	–
AUAUUUAGCUUUUUGUGAAACAUGAGGAUCACCCAUGUCCUCAUACCUGGACAUUUAAGUCUAGGAGCUCGUCUUAU [Last end dangle 2] (Eterna round: R97, puzzle: Sensor, turn-off variant 1)	0.479	–	0.612	–	–	–
AUCAAAUUAAAUACAGAUCACAUGAGGAUCACCCAUGUCGUACGAGUGCAGAUCUUUGAAGCUGGCUCGUCUAAGUG [Eternabot (L2) Solution 21] (Eterna round: R97, puzzle: Sensor, turn-off variant 1)	0.154	–	0.165	–	–	–
AUCAGCUCGUCAGGAUAUACAUCACUGCUUCGGCAGUGUAUUAAGAUCACAUGAGGAUCACCCAUGUAGAAGGGACGAGCUGAU [ENG2/2-B3] (Eterna round: R96, puzzle: Exclusion NG 2)	0.342	0.0182	0.0253	–	–	–
AUCAGCUCGUCAGGAUAUACAUGAGGAUCACCCAUGUGGUCAAUAGCAGCUUCGGCUGCAUACAUGUAGAAGGGACGAGCUGAU [ENG2/7-B2] (Eterna round: R96, puzzle: Exclusion NG 2)	0.0284	0.894	0.101	–	–	–
AUCAGCUCGUCAGGAUAUACAUGAUAGAUCGAUUAAUUAAUUAAUUUAACAUGAGGAUCACCCAUGUAGAAGGGACGAGCUGAU [ENG2/1-B3] (Eterna round: R96, puzzle: Exclusion NG 2)	–	0.0393	–	–	–	–
AUCAGCUCGUGAGGAUAUACAUGCGUGCUUCGGCACGUAUGAUAGAUCACAUGAGGAUCACCCAUGUAGAAGGUACGAGCUGAU [ENG2/4-C3] (Eterna round: R96, puzzle: Exclusion NG 2)	0.0126	0.0107	0.0126	–	–	–
AUCAUGUAAGGAUAUCUGACAAGUGACGAAAGUCACAGUUCAGAGAAGGUACAUGAGGAUCACCCAUGUAGAAC [Ex4-3: 42] (puzzle: Exclusion 4)	–	–	–	0.0513	0.0824	0.0716
AUCAUGUAAGGAUAUGAAAGUAAACGCGUGAAGACCACGCAUCAGAAGGUACAUGAGGAUCACCCAUGUGUCCG [Soesatle] (Eterna round: R97, puzzle: Exclusion 4)	0.0606	–	0.0198	–	–	–
AUCAUGUUAGGAUAUACAAGAAAAGAAAAGAAAGAAAAGAAGUAGAAGGAACAUGAGGAUCACCCAUGUAAGAA [EteRNA is fun!] (Eterna round: R96, puzzle: Exclusion 4)	–	0.023	–	–	–	–
AUCCGGCGUGUAGGAUAUGGUUCCGUUUCGGUUCCAGAAGGACAUGAGGAUCACCCAUGUGCCUGUCGUCGGUCGUCACCGGGC [salish99_ExNG1_r04_218] (Eterna round: R96, puzzle: Exclusion NG 1)	0.0437	0.0134	0.0165	–	–	–
AUCCUACAUGAGGAUCACCCAUGUCAGGAUAUCCAAGAAAUAUGGCCGUAUCGGCCAUGGAGAAGGGAUAUGGG [jl-ex1-4.67 ViennaUCT mod] (Eterna round: R97, puzzle: Exclusion 1)	0.0265	–	0.115	–	–	–
AUCCUACAUGAGGAUCACCCAUGUCAGGAUAUCCAAGAAAUCUGGCCGUAUCGGCCAGGGAGAAGGGAUAUGGG [jl-ex1-4.64 ViennaUCT mod] (Eterna round: R97, puzzle: Exclusion 1)	0.0577	–	0.0742	–	–	–
AUCGUGCAGCAAAGCUGUACGAGUACAUGAGGAUCACCCAUGUAGGAUAUGGUACGCAAAGCGUGCUAGAAGGAUAUGUGUAAG [Mat - Exclusion NG 3 - Mod of JL - D85] (Eterna round: R96, puzzle: Exclusion NG 3)	0.0655	0.0399	0.0616	–	–	–
